Publication doi:10.1101/2023.09.11.557127

Molecular target: human wild-type 5-HT1AR with C-terminal ARMS2-PK2 (5-HT1AR-ARMS2-PK2) (human) (UniProt P08908)
Assay: split reporter

Sequence of UniProt P08908 (P08908 whole entry): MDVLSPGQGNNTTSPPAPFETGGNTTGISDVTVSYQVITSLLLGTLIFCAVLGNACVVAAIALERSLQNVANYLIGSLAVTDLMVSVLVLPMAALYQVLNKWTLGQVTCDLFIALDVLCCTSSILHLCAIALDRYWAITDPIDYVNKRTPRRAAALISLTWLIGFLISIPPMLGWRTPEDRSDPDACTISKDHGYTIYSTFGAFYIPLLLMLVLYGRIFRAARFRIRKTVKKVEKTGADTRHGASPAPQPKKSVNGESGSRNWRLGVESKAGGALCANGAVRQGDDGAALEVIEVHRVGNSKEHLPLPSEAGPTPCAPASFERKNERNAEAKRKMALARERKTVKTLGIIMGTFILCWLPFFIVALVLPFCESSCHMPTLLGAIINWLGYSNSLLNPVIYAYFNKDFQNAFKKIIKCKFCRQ

## β-arrestin-2-EA (from UniProt P32121 1-409) (natural protein)
  Emax of recruitment with ST171, elevated GRK2 (% of serotonin): 15%
  Emax of recruitment with ST171, native GRK2 (% of serotonin): < 5%
  Emax of recruitment with befiradol, elevated GRK2 (% of serotonin): 96%
  Emax of recruitment with befiradol, native GRK2 (% of serotonin): 67%
